Results published in patent publication US6919086B1, “Graminae pollen allergen mutants for specific immunotherapy, and production and use of the same” (Merck Patent Gesellschaft mit, priority 1997, dated 2005).
Numbering of substitutions follows the chain as printed. Names and notes keep the numbering of the source.

B1: rPhl p 5b deletion mutant DM3 (deletion A154-T177, A220T) (protein)
chain: ADAGYAPATPAAAGAAAGKATTEEQKLIEDINVGFKAAVAAAASVPAADKFKTFEAAFTSSSKAAAAKAPGLVPKLDAAYSVAYKAAVGATPEAKFDSFVASLTEALRVIAGALEVHAVKPVTEEPGMAKIPAGELQIIDKIDAAFKVAATAAGGAYDTYKCIPSLEAAVKQAYAATVAAAPQVKYAVFEAALTKTITAMSEVQKVSQPATGAATVAAGAATTAAGAASGAATVAAGGYKV
B2: DM1: deletion mutant of rPhl p 5b (ΔK50-P132, D49→L), SEQ ID NO 91 (protein)
chain: ADAGYAPATPAAAGAAAGKATTEEQKLIEDINVGFKAAVAAAASVPAALAGELQIIDKIDAAFKVAATAAATAPADDKFTVFEAAFNKAIKESTGGAYDTYKCIPSLEAAVKQAYAATVAAAPQVKYAVFEAALTKAITAMSEVQKVSQPATGAATVAAGAATTAAGAASGAATVAAGGYKV
B3: rPhl p 5b point mutant PM1 (N32D, D49L, K50A) (protein)
chain: ADAGYAPATPAAAGAAAGKATTEEQKLIEDIDVGFKAAVAAAASVPAALAFKTFEAAFTSSSKAAAAKAPGLVPKLDAAYSVAYKAAVGATPEAKFDSFVASLTEALRVIAGALEVHAVKPVTEEPGMAKIPAGELQIIDKIDAAFKVAATAAATAPADDKFTVFEAAFNKAIKESTGGAYDTYKCIPSLEAAVKQAYAATVAAAPQVKYAVFEAALTKAITAMSEVQKVSQPATGAATVAAGAATTAAGAASGAATVAAGGYKV
B4: rPhl p 5b point mutant PM3 (A13C) (protein)
chain: B3 chain with A13C, D32N, L49D, A50K

What follows are molecules tested on Phl p 5b-reactive T cell clones (TCCs) from allergic patients (assay: Proliferative reaction of Phl p 5b-reactive T cell clones ([3H]-thymidine incorporation)). Details: T cell-reactive region A; final concentration 0.3 μM.
Format: cell-based, human
Experimental: (§1) 40 ml of heparinized blood were obtained from each patient. Peripheral mononuclear cells (PBMC) were then isolated from this blood sample by means of the customary method using density gradient centrifugation. Analogous cell isolations were carried out at a later stage when it was necessary to obtain irradiated autologous antigen-presenting cells (APC) for characterizing the TCL and TCC further. After the PBMC had been counted, TCL which reacted to group 5 allergens in vitro were established as follows and as has already been described in detail elsewhere (Lit. 1): in each well of 24-well microculture plates, from 1.5 to 2.0×10^6 PBMC in 1 ml of culture medium (UltraCulture) were stimulated for 7 days in the added presence of natural Phl p5 allergens (in each case 10 μg/well) which had been purified by immunoaffinity chromatography. A total of from 8 to 10 of these cultures were set up. The isolation of Phl p5 by means of immunoaffinity chromatography has been described in detail (Lit. 2). At the end of the 7 days of culture, IL-2 (from 10 to 20 IU/well) was added to the cell cultures for a further 5 to 7 days. All the individual cultures were then pooled and the T cell blasts were enriched by means of density gradient centrifugation; the TCL which were obtained were then tested in a specific lymphocyte proliferation test (see Lit. 1 as well). For this, 2×10^4/ml TCL blasts were in each case cultured with 5×10^4/ml irradiated autologous APCs in triplicate samples in 96-well microculture plates. 10-20 μg of Phl p5 allergen were added as the specific antigen stimulus. After 56 hours of incubation, ^3H-labelled thymidine (1 μCi/well) was pipetted into the microcultures. After a further 16 hours, the radioactivity which had been incorporated into the proliferating T cell blasts was measured in a beta counter (Matrix 96). The results were calculated, as the arithmetic mean of the multiple samples, in counts per minute (cpm). The criterion for the quality of the TCL was the stimulation index, which was obtained by relating the cpm values with Phl p5 addition to those without Phl p5 addition.
After a TCL had been cloned (see below), the specificity of the isolated TCCs were determined as has just been described. Stimulation indices of at least 5 were rated as being positive for the TCCs. The determination of T cell epitopes for defining the T cell-reactive regions on group 5 allergens was also carried out using specific proliferation tests, with 1-2 μg of synthesized dodecapeptide/ml being used for this purpose in each case (see below).
The reactivity of the recombinant Ph1 p 5b mutants was tested on established T cell clones (TCCs) of known specificity. The TCCs derive from patients who are allergic to grass pollen (see Ex. 1) and are directed against the T cell-reactive regions A (FIG. 7), B (FIG. 8) and C (FIG. 9). The T cell reactivity was measured by stimulating the clones to proliferate.

Molecule | Incorporation of [3H]-thymidine into TCC JR 13 (stimulation index class) | Incorporation of [3H]-thymidine into TCC JR 15 (stimulation index class) | Incorporation of [3H]-thymidine into TCC CB 2 (stimulation index class) | Incorporation of [3H]-thymidine into TCC CB 14 (stimulation index class)
B1 | +++ (>10 (+++)) | +++ (>10 (+++)) | – | –
B2 | +++ (>10 (+++)) | +++ (>10 (+++)) | +++ (>10 (+++)) | +++ (>10 (+++))
B3 | +++ (>10 (+++)) | ++ (5-10 (++)) | +++ (>10 (+++)) | +++ (>10 (+++))
B4 | +++ (>10 (+++)) | – | +++ (>10 (+++)) | –

Same assay, conditions: T cell-reactive region B; final concentration 0.3 μM

Molecule | Incorporation of [3H]-thymidine into TCC DW8 (stimulation index class) | Incorporation of [3H]-thymidine into TCC UZH2 (stimulation index class)
B1 | + (1-2 (+)) | +++ (>10 (+++))
B2 | + (1-2 (+)) | +++ (>10 (+++))
B3 | + (1-2 (+)) | +++ (>10 (+++))
B4 | – | +++ (>10 (+++))

Same assay, conditions: T cell-reactive region C; final concentration 0.3 μM

Molecule | Incorporation of [3H]-thymidine, stimulation index SI, 1st exp. | Incorporation of [3H]-thymidine, stimulation index SI, 2nd exp. | Incorporation of [3H]-thymidine, stimulation index SI, 3rd exp. | Incorporation of [3H]-thymidine, stimulation index class (last column, no head)
B1 | 9.8 | 6.9 | 4.4 | ++ (5-10 (++))
B2 | 8.6 | 6.2 | 4.4 | ++ (5-10 (++))
B3 | – | – | 1.1 | − (<1 (−))
B4 | 7.4 | 5.9 | 4.5 | ++ (5-10 (++))

What follows are molecules tested against IgE antibodies of the individual allergic patient serum II/17 (assay: EAST inhibition, individual serum II/17). Details: not given.

Molecule | IC50 | allergenic potency (Prel) at 25% inhibition (relative to native Phl p 5b) | allergenic potency (Prel) at 50% inhibition (relative to native Phl p 5b) | inhibition value (inhibitor concentration at 25% inhibition)
B1 | 0.05 µM | 0.038 | 0.0005 | 5.6e-09 mol/L
B3 | 0.0022 µM | 0.336 | 0.119 | 6.4e-10 mol/L
B4 | 0.0055 µM | 0.855 | 0.468 | 2.5e-10 mol/L

The molecules below were run on Phl p 5b-reactive T cell lines (TCLs) from allergic patients (assay: Proliferative reaction of Phl p 5b-reactive oligoclonal T cell lines ([3H]-thymidine incorporation)). Details: TCLs from 8 patients allergic to grass pollen.
Format: cell-based, human
Experimental: In the second phase, oligoclonal T cell lines, which have been established by repeated stimulation with the relevant allergens, are employed for the testing. Once again, only those modified recombinant allergens which at least give rise to a stimulation index (SI) of 50% of the SI of the wild type are taken into consideration.
as §1
The oligoclonal T cell lines (TCLs) from 8 patients who were allergic to grass pollen (see Ex. 1) were established by repeated activation with natural Ph1 p 5b (a+b) or recombinant rPh1 p 5b or 5a+5b.
The proliferative reaction of these TCLs was tested using the rPh1 p 5b mutants (FIG. 10).

Molecule | Proliferative reaction of TCLs (in words)
B1 | strong specific stimulation with most of the TCLs

Same assay, conditions: primary stimulator n Phl p 5; secondary activator 0.3 μM

Molecule | Incorporation of [3H]-thymidine into TCL 2 Eic (stimulation index class) | Incorporation of [3H]-thymidine into TCL 4 Mer (stimulation index class) | Incorporation of [3H]-thymidine into TCL 3 Fre (stimulation index class) | Incorporation of [3H]-thymidine into TCL 1 Wöl (stimulation index class)
B1 | + (1-2 (+)) | ++ (5-10 (++)) | – | –
B2 | + (1-2 (+)) | + (1-2 (+)) | + (1-2 (+)) | –
B3 | – | – | + (1-2 (+)) | + (1-2 (+))
B4 | – | + (1-2 (+)) | + (1-2 (+)) | –

Same assay, conditions: primary stimulator r Phl p 5; secondary activator 0.3 μM

Molecule | Incorporation of [3H]-thymidine into TCL 5 17.4 (stimulation index class)
B1 | ++ (5-10 (++))
B2 | + (1-2 (+))
B3 | + (1-2 (+))
B4 | + (1-2 (+))

Same assay, conditions: primary stimulator r Phl p 5a, r Phl p 5b; secondary activator 0.3 μM

Molecule | Incorporation of [3H]-thymidine into TCL 6 Mah (stimulation index class)
B1 | +++ (>10 (+++))
B2 | ++ (5-10 (++))
B3 | ++ (5-10 (++))

Same assay, conditions: primary stimulator r Phl p 5b; secondary activator 0.3 μM

Molecule | Incorporation of [3H]-thymidine into TCL 7 19.2 (stimulation index class) | Incorporation of [3H]-thymidine into TCL 8 20.1 (stimulation index class)
B1 | +++ (>10 (+++)) | +++ (>10 (+++))
B2 | +++ (>10 (+++)) | +++ (>10 (+++))
B3 | +++ (>10 (+++)) | +++ (>10 (+++))
B4 | +++ (>10 (+++)) | + (1-2 (+))

Each molecule was assayed against IgE antibodies of the allergic patient serum pool Bor 18/100 (20 donors) (assay: EAST inhibition, serum pool Bor 18/100). Details: not given.

Molecule | IC50 | allergenic potency (Prel) at 25% inhibition (relative to native Phl p 5b) | allergenic potency (Prel) at 50% inhibition (relative to native Phl p 5b) | inhibition value (inhibitor concentration at 25% inhibition)
B1 | 4.1 µM | 0.028 | 0.0001 | 1.2e-09 mol/L
B3 | 0.012 µM | 0.739 | 0.349 | 4.5e-10 mol/L
B4 | 0.0048 µM | 1.64 | 0.864 | 2e-10 mol/L

These molecules were tested against IgE antibodies of the individual allergic patient serum II/12 (assay: EAST inhibition, individual serum II/12). Details: not given.

Molecule | IC50 | allergenic potency (Prel) at 25% inhibition (relative to native Phl p 5b) | allergenic potency (Prel) at 50% inhibition (relative to native Phl p 5b) | inhibition value (inhibitor concentration at 25% inhibition)
B1 | 100 µM | 0.012 | 5.7e-05 | 4.5e-09 mol/L
B3 | 0.083 µM | 0.391 | 0.082 | 1.3e-09 mol/L
B4 | 0.091 µM | 0.389 | 0.075 | 1.3e-09 mol/L

These molecules were tested against IgE antibodies of the individual allergic patient serum II/3 (assay: EAST inhibition, individual serum II/3). Details: not given.

Molecule | IC50 | allergenic potency (Prel) at 25% inhibition (relative to native Phl p 5b) | allergenic potency (Prel) at 50% inhibition (relative to native Phl p 5b) | inhibition value (inhibitor concentration at 25% inhibition)
B1 | 32000 µM | 0.0004 | 1.8e-07 | 1.1e-06 mol/L
B3 | 0.019 µM | 0.595 | 0.314 | 8.6e-10 mol/L
B4 | 0.015 µM | 0.922 | 0.399 | 5.5e-10 mol/L
